Reference: patent US20100239579A1

Biological target: human SIRPα (signal regulatory protein alpha), full-length (human) (UniProt P78324)
Experiment: cell-based or functional assay

Chain of human SIRPα (signal regulatory protein alpha), full-length (human) (P78324 31-504): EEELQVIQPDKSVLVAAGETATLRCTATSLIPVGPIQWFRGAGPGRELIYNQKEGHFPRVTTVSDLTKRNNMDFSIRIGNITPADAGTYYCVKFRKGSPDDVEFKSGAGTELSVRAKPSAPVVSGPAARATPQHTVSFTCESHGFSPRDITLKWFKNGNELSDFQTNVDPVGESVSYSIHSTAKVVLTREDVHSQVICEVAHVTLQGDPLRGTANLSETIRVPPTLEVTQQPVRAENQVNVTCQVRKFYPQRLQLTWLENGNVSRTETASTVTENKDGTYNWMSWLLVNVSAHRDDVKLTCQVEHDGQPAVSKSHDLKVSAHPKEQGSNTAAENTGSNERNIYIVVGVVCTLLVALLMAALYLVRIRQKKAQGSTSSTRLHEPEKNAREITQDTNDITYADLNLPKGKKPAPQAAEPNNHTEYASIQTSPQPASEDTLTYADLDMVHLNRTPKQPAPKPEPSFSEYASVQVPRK

“hCD47-hFc (human CD47 extracellular Ig-V domain fused to the Fc region of human IgG1), Example 8 (from UniProt Q08722 19-142) (Fc fusion)” was tested. Which inhibition of FSL-1 mediated TNF-α production of human DCs by hCD47-hFc immobilized on anti-human Fc coated plates did it give?
The inhibition of FSL-1 mediated TNF-α production of human DCs by hCD47-hFc immobilized on anti-human Fc coated plates was 78 ng/mL.

What about the inhibition of SAC-induced IL-23 secretion in human DCs of the same substance?
The inhibition of SAC-induced IL-23 secretion in human DCs was 11 ng/mL.
